Data from PMC11055803, “ANCUT1, a novel thermoalkaline cutinase from Aspergillus nidulans and its application on hydroxycinnamic acids lipophilization” (Biotechnology Letters, 2024).

System: T1, CC(=O)Oc1ccc([N+](=O)[O-])cc1
T1 construct: native secreted enzyme purified from culture broth (ammonium sulfate, ultrafiltration, continuous elution electrophoresis, renatured with Triton X-100); 22 kDa, pI 6; no glycosylation detected
Assay: Lineweaver-Burk, p-nitrophenol release
Type: biochemical, Aspergillus nidulans
Conditions: Tris-HCl pH 9.0, 37 °C, substrate 0.5-2 mM
Source text: Lineweaver-Burk, p-nitrophenol release on ANCUT1

## ANCUT1 (Aspergillus nidulans FGSC A4)
  Km: 18.29 mM
  Vmax: 58800 µM/min
  kcat: 3.67 s⁻¹
  kcat/Km: 201 M⁻¹ s⁻¹
